# According to patent publication US20170096492A1, “DOSAGE AND ADMINISTRATION OF ANTI-IGF-1R, ANTI-ErbB3 BISPECIFIC ANTIBODIES, USES THEREOF AND METHODS OF TREATMENT [sequence]” (Merrimack Pharmaceuticals, Inc., priority 2014, published 2017):
# “Also recorded” adds a separate entry of the source.
# How the values were obtained:
# [1] = test system: BxPC-3 (KRAS wild type) pancreatic cancer cells; assay: CTG cell viability, gemcitabine or paclitaxel with IGF-1 and HRG, two-dimensional cultures; type: cell-based, human; settings: IGF-1 50 nM and HRG 10 nM, 2% serum, MM-141 500 nM
# Method: The cell viability assay (FIGS. 7A-B and 8A-B) was carried out using a CellTiter-Glo® (CTG) assay (Promega), which determines the number of viable cells in a culture based on quantitation of the ATP present. In FIGS. 7A-B, BxPC-3 cells were grown in low serum alone or with exogenous IGF-1 or HRG added (0-50 nM). […] For the cell viability assays described in FIGS. 8(A-B), (FIG. 8A) BxPC-3 and (FIG. 8B) CFPAC-1 cells were cultured in low (2%) serum alone or with a combination of IGF-1 (50 nM) and HRG (10 nM).
# [2] = test system: BxPC-3 derived xenograft tumors; assay: BxPC-3 xenograft PD, western blot; type: in vivo, mice; settings: MM-141 30 mpk i.p. Day 0, 3, 6 co-administered with gemcitabine 150 mpk
# From the text: For the PD studies described in FIGS. 6A-B and FIGS. 9 A-B, nu/nu female mice were inoculated with 8×10^6 DU145 or 5×10^6 BxPC-3 cells, respectively, in 1:1 Matrigel® suspension. […] Tumor lysates were generated and subjected to western blot analysis.
# [3] = Phase 1 PK analysis of serum MM-141 (ELISA, non-compartmental); type: in vivo, human; settings: range
# Method: (§1) Serum for PK and PD analysis was prepared by drawing whole blood into red top tubes, clotting 30 minutes at 4-8° C. and spinning down in a refrigerated centrifuge. Serum was aliquotted and frozen immediately after centrifugation. PD analysis of total IGF-1 in serum was performed using Human IGF-I Quantikine® ELISA Kit (R&D Systems, Minneapolis, Minn.) according to the manufacturer's instructions. For the PK analysis, in brief, ELISA plates were plates were coated with IGF-1R (R&D Systems) in PBS and incubated overnight at 4° C. Plates were washed, blocked, and then samples and standards were added to plates and incubated for 2 hr at room temperature. Plates were washed and ErbB3-His was added for 1 hr at room temperature. Plates were washed and anti-His-HRP (Abeam, Cambridge, Mass.) was added for 1 hr at room temperature. Plates were developed using TMB and STOP solution and absorbance was read at 450 nm. PK parameters were analyzed using descriptive statistics including the median, mean and 95% confidence intervals around parameter estimates by dose level. All PK parameters included Cmax, Tmax, AUC (area under the concentration curve), clearance, volume of distribution at steady state (Vdss), and the terminal elimination half-life. Estimation of the PK parameters was performed using standard non-compartmental methods.
# [4] = test system: CFPAC-1 pancreatic cancer cells; assay: pAKT (Ser473) ELISA after chemotherapy and ligand stimulation; type: cell-based, human; settings: 24 hours
# Method: CFPAC-1 pancreatic cancer cells were seeded at 65% confluence in 10% serum-containing medium on 96-well plates overnight. […] Following incubation, cells were treated with (FIG. 24A) HRG (5 nM) or (FIG. 24B) IGF-1 (50 nM) for 15 minutes, where indicated. After treatment, cells were harvested and protein lysates generated. Changes in pAKT (Ser473) levels across all treatments were evaluated by pAKT ELISA, respectively. FIGS. 24(A-B) are bar graphs showing pAKT levels relative to ligand alone stimulated signals, which were normalized to 1.
# CFPAC-1 pancreatic cancer cells were seeded at 65% confluence in 10% serum-containing medium on 96-well plates overnight. […] Following incubation, cells were treated with (FIG. 25A) HRG (5 nM) or (FIG. 25B) IGF-1 (50 nM) for 15 minutes, where indicated. After treatment, cells were harvested and protein lysates generated. Changes in pAKT (Ser473) levels across all treatments were evaluated by pAKT ELISA, respectively. FIGS. 25(A-B) are bar graphs showing pAKT levels relative to ligand alone stimulated signals, which were normalized to 1.
# [5] = test system: patients with solid tumors; assay: Phase 1 dose escalation study, MM-141 monotherapy (Arm A): safety and disease response; type: in vivo, human
# From the text: Adverse events that were reported with a frequency>15% included: vomiting (7/15), nausea (6/15), fatigue (4/15), abdominal pain (4/15), increased AP (4/15), dyspnea (4/15), diarrhea (3/15), anemia (3/15), increased AST (3/15), and rash (3/15). […] The safety, tolerability, PK and PD profiles support weekly and biweekly MM-141 dosing.
# [6] = test system: total IGF-1 in serum; assay: Phase 1 PD analysis of total IGF-1 in serum (Quantikine ELISA); type: in vivo, human
# Method: as §1
# [7] = test system: BxPC-3 cell line xenografts; assay: BxPC-3 xenograft efficacy study; type: in vivo, mice
# Method: For the efficacy studies (FIGS. 6C and 9C), nu/nu female mice were inoculated with 8×10^6 DU145 cells and 5×10^6 BxPC-3 cells, respectively. […] Tumor volume was measured weekly as described in Example 4.
# [8] = test system: CAKI-1 xenografts; assay: CAKI-1 xenograft PD, western blot; type: in vivo, mice
# Method: For the PD study results shown in FIGS. 3A-B and FIGS. 5A-C, NOD/SCID female mice were inoculated with 12×10^6 CAKI-1 or 10×10^6 SK-ES-1 cells, respectively, in 1:1 Matrigel® suspension. […] Tumors were harvested 24 hours after the second dose of drug; lysates were generated and subjected to western blot analysis.
# [9] = test system: IGF-1R and ErbB3 receptors; assay: Receptor expression ELISA versus monospecific antibodies (Example 31); type: cell-based; settings: 50 nM, four hours post-treatment, compared with monospecific antibodies
# Method: Cell lysates were harvested four hours post-treatment with antibodies as indicated in FIGS. 33A and 33B (50 nM of each antibody) and changes in receptor expression were measured by ELISA. All ELISA measurements are normalized to vehicle (PBS) treatment, and these measurements are expressed relative to a vehicle treated control value of 1.
# [10] = patients with event / 15 patients dosed, all dose levels
# [11] = single agent, MM-141 30 mpk i.p. or everolimus 10 mpk orally, 2 doses, tumors harvested 24 hours after second dose
substance,measurement,setting,value
"MM-141: polyvalent bispecific antibody P4-G1-M1.3, anti-IGF-1R and anti-ErbB3; heavy chain SEQ ID NO: 3, light chain SEQ ID NO: 4",resistance to cytotoxic effect of gemcitabine and paclitaxel caused by combination of IGF-1 and HRG,[1],resistance was reversed
same,"gemcitabine-induced receptor (IGF-1R, ErbB3) up-regulation",[2],reversed the receptor up-regulation
same,Half-lives,[3]; 6 mg/kg q7d,2.4 to 6.3 days
same,Half-lives,[3]; 12 mg/kg q7d,2.1 to 2.9 days
same,Half-lives,[3]; 20 mg/kg q7d,3.3 to 3.4 days
same,Half-lives,[3]; 40 mg/kg q14d,3.2 to 9.9 days
same,"gemcitabine-induced increased sensitivity to HRG and IGF-1, pAKT (Ser473)",[4]; MM-141 500 nM with gemcitabine 1 μM,this effect is blocked
same,"paclitaxel-induced increased sensitivity to IGF-1, pAKT (Ser473)",[4]; MM-141 500 nM with paclitaxel 100 nM,this effect is blocked
same,dose-limiting toxicities,"[5]; monotherapy 6, 12, 20 mg/kg q7d or 40 mg/kg q14d, 15 patients",No dose-limiting toxicities were observed; also recorded: No DLTs were observed
same,disease stabilization,[5]; patients with Ewing's Sarcoma (1) and parotid gland carcinoma (1),Disease stabilization was observed
same,adverse events reported with a frequency>15%: abdominal pain,[5]; [10],4/15
same,adverse events reported with a frequency>15%: anemia,[5]; [10],3/15
same,adverse events reported with a frequency>15%: diarrhea,[5]; [10],3/15
same,adverse events reported with a frequency>15%: dyspnea,[5]; [10],4/15
same,adverse events reported with a frequency>15%: fatigue,[5]; [10],4/15
same,adverse events reported with a frequency>15%: increased AP,[5]; [10],4/15
same,adverse events reported with a frequency>15%: increased AST,[5]; [10],3/15
same,adverse events reported with a frequency>15%: nausea,[5]; [10],6/15
same,adverse events reported with a frequency>15%: rash,[5]; [10],3/15
same,adverse events reported with a frequency>15%: vomiting,[5]; [10],7/15
same,increase in serum total IGF-1,[6]; 6 mg/kg cohort,approximately two-fold in 1/3 patient samples
same,increase in serum total IGF-1,[6]; 12 mg/kg cohort,approximately two-fold in 1/3 patient samples
same,increase in serum total IGF-1,"[6]; 20 mg/kg, all patient samples",approximately a two-fold increase
same,increase in serum total IGF-1,"[6]; 40 mg/kg, all patient samples",approximately two to four fold increases
same,tumor growth after development of resistance to gemcitabine,[7]; MM-141 30 mpk i.p. q3d added to the gemcitabine regimen on day 41,decreased tumor growth
same,activity of gemcitabine in the combination arm,[7]; MM-141 30 mpk i.p. q3d co-administered with gemcitabine 150 mpk i.p. q6d,increased the activity of gemcitabine
same,therapeutic synergy with gemcitabine,[7]; MM-141 30 mpk i.p. q3d with gemcitabine 150 mpk i.p. q6d,therapeutic synergy
same,everolimus-induced upregulation of IGF-1R and ErbB2 (resistance mechanism),[8]; MM-141 30 mpk i.p. co-administered with everolimus 10 mpk orally,resistance mechanism was inhibited
same,total ErbB2,[8]; [11],down regulation
same,total IGF-1R,[8]; [11],down regulation
same,decrease of ErbB3 expression level,[9],to a greater extent
same,decrease of IGF-1R expression level,[9],to a greater extent
